Experimental data: patent US20140271457A1 (AbbVie / Abbott, published 2014)

Target: Recombinant Human TNF-α/TNFSF1A (human, UniProt P01375 77-233)
Assay: cell-based or functional assay

Chain of Recombinant Human TNF-α/TNFSF1A (P01375 77-233 limits assumed): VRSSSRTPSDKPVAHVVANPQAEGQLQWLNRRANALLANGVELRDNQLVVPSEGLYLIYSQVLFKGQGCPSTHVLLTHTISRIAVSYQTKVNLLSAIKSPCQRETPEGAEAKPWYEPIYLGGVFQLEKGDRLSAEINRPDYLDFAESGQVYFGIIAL

| N-Terminal VD huTNFα Neutralization Assay IC50 [nM] | C-Terminal VD huTNFα Neutralization Assay IC50 [nM] | Binder |
| --- | --- | --- |
| 0.022 |  | DVD3216 (bispecific antibody, IgG1) VH: EVQLVESGGGLVQPGGSLRLSCAASGFTFSNYGVEWVRQAPGKGLEWVSGIWADGSTHYADTVKSRFTISRDNSKNTLYLQMNSLRAEDTAVYYCAREWQHGPVAYWGQGTLVTVSSASTKGPEVQLVESGGGLVQPGGSLRLSCAASGFSFSKYWLGWVRQAPGKGLEWVSDIYPGYDYTHYNEKFKDRFTISADTSKNTAYLQMNSLRAEDTAVYYCARSDGSSTYWGQGTLVTVSS VL: DIQMTQSPSSLSASVGDRVTITCKASQLVSSAVAWYQQKPGKAPKLLIYWASTLHTGVPSRFSGSGSGTDFTLTISSLQPEDFATYYCQQHYRTPFTFGQGTKLEIKRTVAAPSVFIFPPDIQMTQSPSSLSASVGDRVTITCTSSQNIVHSNGNTYLEWYQQKPGKAPKLLIYKVSNRFSGVPSRFSGSGSGTDFTLTISSLQPEDFATYYCFQVSHVPYTFGQGTKVEIKR |
|  | 0.086 | DVD3229 (bispecific antibody, IgG1) VH: EVQLVESGGGLVQPGGSLRLSCAASGFSFSKYWLGWVRQAPGKGLEWVSDIYPGYDYTHYNEKFKDRFTISADTSKNTAYLQMNSLRAEDTAVYYCARSDGSSTYWGQGTLVTVSSASTKGPEVQLVQSGAEVKKPGASVKVSCKASGYTFANYGIIWVRQAPGQGLEWMGWINTYTGKPTYAQKFQGRVTMTTDTSTSTAYMELSSLRSEDTAVYYCARKLFTTMDVTDNAMDYWGQGTTVTVSS VL: DIQMTQSPSSLSASVGDRVTITCTSSQNIVHSNGNTYLEWYQQKPGKAPKLLIYKVSNRFSGVPSRFSGSGSGTDFTLTISSLQPEDFATYYCFQVSHVPYTFGQGTKVEIKRTVAAPDIQMTQSPSSLSASVGDRVTITCRASQDISQYLNWYQQKPGKAPKLLIYYTSRLQSGVPSRFSGSGSGTDFTLTISSLQPEDFATYFCQQGNTWPPTFGQGTKLEIKR |
|  | 0.479 | DVD3221 (bispecific antibody, IgG1) VH: EVQLVESGGGLVQPGGSLRLSCAASGFSFSKYWLGWVRQAPGKGLEWVSDIYPGYDYTHYNEKFKDRFTISADTSKNTAYLQMNSLRAEDTAVYYCARSDGSSTYWGQGTLVTVSSASTKGPEVQLVESGGGLVQPGGSLRLSCAASGFTFSNYGVEWVRQAPGKGLEWVSGIWADGSTHYADTVKSRFTISRDNSKNTLYLQMNSLRAEDTAVYYCAREWQHGPVAYWGQGTLVTVSS VL: DIQMTQSPSSLSASVGDRVTITCTSSQNIVHSNGNTYLEWYQQKPGKAPKLLIYKVSNRFSGVPSRFSGSGSGTDFTLTISSLQPEDFATYYCFQVSHVPYTFGQGTKVEIKRTVAAPSVFIFPPDIQMTQSPSSLSASVGDRVTITCKASQLVSSAVAWYQQKPGKAPKLLIYWASTLHTGVPSRFSGSGSGTDFTLTISSLQPEDFATYYCQQHYRTPFTFGQGTKLEIKR |
| 0.004 |  | DVD3224 (bispecific antibody, IgG1) VH: EVQLVQSGAEVKKPGASVKVSCKASGYTFANYGIIWVRQAPGQGLEWMGWINTYTGKPTYAQKFQGRVTMTTDTSTSTAYMELSSLRSEDTAVYYCARKLFTTMDVTDNAMDYWGQGTTVTVSSASTKGPEVQLVESGGGLVQPGGSLRLSCAASGFSFSKYWLGWVRQAPGKGLEWVSDIYPGYDYTHYNEKFKDRFTISADTSKNTAYLQMNSLRAEDTAVYYCARSDGSSTYWGQGTLVTVSS VL: DIQMTQSPSSLSASVGDRVTITCRASQDISQYLNWYQQKPGKAPKLLIYYTSRLQSGVPSRFSGSGSGTDFTLTISSLQPEDFATYFCQQGNTWPPTFGQGTKLEIKRTVAAPDIQMTQSPSSLSASVGDRVTITCTSSQNIVHSNGNTYLEWYQQKPGKAPKLLIYKVSNRFSGVPSRFSGSGSGTDFTLTISSLQPEDFATYYCFQVSHVPYTFGQGTKVEIKR |

Continued, binder first:

| Binder | N-Terminal VD huTNFα Neutralization Assay IC50 [nM] | C-Terminal VD huTNFα Neutralization Assay IC50 [nM] |
| --- | --- | --- |
| DVD3223 (bispecific antibody, IgG1) VH: EVQLVQSGAEVKKPGASVKVSCKASGYTFANYGIIWVRQAPGQGLEWMGWINTYTGKPTYAQKFQGRVTMTTDTSTSTAYMELSSLRSEDTAVYYCARKLFTTMDVTDNAMDYWGQGTTVTVSSGGGGSGGGGSEVQLVESGGGLVQPGGSLRLSCAASGFSFSKYWLGWVRQAPGKGLEWVSDIYPGYDYTHYNEKFKDRFTISADTSKNTAYLQMNSLRAEDTAVYYCARSDGSSTYWGQGTLVTVSS VL: DIQMTQSPSSLSASVGDRVTITCRASQDISQYLNWYQQKPGKAPKLLIYYTSRLQSGVPSRFSGSGSGTDFTLTISSLQPEDFATYFCQQGNTWPPTFGQGTKLEIKRGGSGGGGSGDIQMTQSPSSLSASVGDRVTITCTSSQNIVHSNGNTYLEWYQQKPGKAPKLLIYKVSNRFSGVPSRFSGSGSGTDFTLTISSLQPEDFATYYCFQVSHVPYTFGQGTKVEIKR | 0.002 |  |
| DVD3228 (bispecific antibody, IgG1) VH: EVQLVESGGGLVQPGGSLRLSCAASGFSFSKYWLGWVRQAPGKGLEWVSDIYPGYDYTHYNEKFKDRFTISADTSKNTAYLQMNSLRAEDTAVYYCARSDGSSTYWGQGTLVTVSSGGGGSGGGGSEVQLVQSGAEVKKPGASVKVSCKASGYTFANYGIIWVRQAPGQGLEWMGWINTYTGKPTYAQKFQGRVTMTTDTSTSTAYMELSSLRSEDTAVYYCARKLFTTMDVTDNAMDYWGQGTTVTVSS VL: DIQMTQSPSSLSASVGDRVTITCTSSQNIVHSNGNTYLEWYQQKPGKAPKLLIYKVSNRFSGVPSRFSGSGSGTDFTLTISSLQPEDFATYYCFQVSHVPYTFGQGTKVEIKRGGSGGGGSGDIQMTQSPSSLSASVGDRVTITCRASQDISQYLNWYQQKPGKAPKLLIYYTSRLQSGVPSRFSGSGSGTDFTLTISSLQPEDFATYFCQQGNTWPPTFGQGTKLEIKR |  | 0.052 |
| DVD3217 (bispecific antibody, IgG1) VH: EVQLVESGGGLVQPGGSLRLSCAASGFTFSNYGVEWVRQAPGKGLEWVSGIWADGSTHYADTVKSRFTISRDNSKNTLYLQMNSLRAEDTAVYYCAREWQHGPVAYWGQGTLVTVSSASTKGPSVFPLAPEVQLVESGGGLVQPGGSLRLSCAASGFSFSKYWLGWVRQAPGKGLEWVSDIYPGYDYTHYNEKFKDRFTISADTSKNTAYLQMNSLRAEDTAVYYCARSDGSSTYWGQGTLVTVSS VL: DIQMTQSPSSLSASVGDRVTITCKASQLVSSAVAWYQQKPGKAPKLLIYWASTLHTGVPSRFSGSGSGTDFTLTISSLQPEDFATYYCQQHYRTPFTFGQGTKLEIKRTVAAPDIQMTQSPSSLSASVGDRVTITCTSSQNIVHSNGNTYLEWYQQKPGKAPKLLIYKVSNRFSGVPSRFSGSGSGTDFTLTISSLQPEDFATYYCFQVSHVPYTFGQGTKVEIKR | 0.008 |  |
| DVD3218 (bispecific antibody, IgG1) VH: EVQLVESGGGLVQPGGSLRLSCAASGFSFSKYWLGWVRQAPGKGLEWVSDIYPGYDYTHYNEKFKDRFTISADTSKNTAYLQMNSLRAEDTAVYYCARSDGSSTYWGQGTLVTVSSGGGGSGGGGSEVQLVESGGGLVQPGGSLRLSCAASGFTFSNYGVEWVRQAPGKGLEWVSGIWADGSTHYADTVKSRFTISRDNSKNTLYLQMNSLRAEDTAVYYCAREWQHGPVAYWGQGTLVTVSS VL: DIQMTQSPSSLSASVGDRVTITCTSSQNIVHSNGNTYLEWYQQKPGKAPKLLIYKVSNRFSGVPSRFSGSGSGTDFTLTISSLQPEDFATYYCFQVSHVPYTFGQGTKVEIKRGGSGGGGSGDIQMTQSPSSLSASVGDRVTITCKASQLVSSAVAWYQQKPGKAPKLLIYWASTLHTGVPSRFSGSGSGTDFTLTISSLQPEDFATYYCQQHYRTPFTFGQGTKLEIKR |  | 0.413 |
| DVD3219 (bispecific antibody, IgG1) VH: EVQLVESGGGLVQPGGSLRLSCAASGFSFSKYWLGWVRQAPGKGLEWVSDIYPGYDYTHYNEKFKDRFTISADTSKNTAYLQMNSLRAEDTAVYYCARSDGSSTYWGQGTLVTVSSASTKGPEVQLVESGGGLVQPGGSLRLSCAASGFTFSNYGVEWVRQAPGKGLEWVSGIWADGSTHYADTVKSRFTISRDNSKNTLYLQMNSLRAEDTAVYYCAREWQHGPVAYWGQGTLVTVSS VL: DIQMTQSPSSLSASVGDRVTITCTSSQNIVHSNGNTYLEWYQQKPGKAPKLLIYKVSNRFSGVPSRFSGSGSGTDFTLTISSLQPEDFATYYCFQVSHVPYTFGQGTKVEIKRTVAAPDIQMTQSPSSLSASVGDRVTITCKASQLVSSAVAWYQQKPGKAPKLLIYWASTLHTGVPSRFSGSGSGTDFTLTISSLQPEDFATYYCQQHYRTPFTFGQGTKLEIKR |  | 2.1 |
| DVD3222 (bispecific antibody, IgG1) VH: EVQLVESGGGLVQPGGSLRLSCAASGFSFSKYWLGWVRQAPGKGLEWVSDIYPGYDYTHYNEKFKDRFTISADTSKNTAYLQMNSLRAEDTAVYYCARSDGSSTYWGQGTLVTVSSASTKGPSVFPLAPEVQLVESGGGLVQPGGSLRLSCAASGFTFSNYGVEWVRQAPGKGLEWVSGIWADGSTHYADTVKSRFTISRDNSKNTLYLQMNSLRAEDTAVYYCAREWQHGPVAYWGQGTLVTVSS VL: DIQMTQSPSSLSASVGDRVTITCTSSQNIVHSNGNTYLEWYQQKPGKAPKLLIYKVSNRFSGVPSRFSGSGSGTDFTLTISSLQPEDFATYYCFQVSHVPYTFGQGTKVEIKRTVAAPDIQMTQSPSSLSASVGDRVTITCKASQLVSSAVAWYQQKPGKAPKLLIYWASTLHTGVPSRFSGSGSGTDFTLTISSLQPEDFATYYCQQHYRTPFTFGQGTKLEIKR |  | 0.243 |
| DVD3226 (bispecific antibody, IgG1) VH: EVQLVQSGAEVKKPGASVKVSCKASGYTFANYGIIWVRQAPGQGLEWMGWINTYTGKPTYAQKFQGRVTMTTDTSTSTAYMELSSLRSEDTAVYYCARKLFTTMDVTDNAMDYWGQGTTVTVSSASTKGPEVQLVESGGGLVQPGGSLRLSCAASGFSFSKYWLGWVRQAPGKGLEWVSDIYPGYDYTHYNEKFKDRFTISADTSKNTAYLQMNSLRAEDTAVYYCARSDGSSTYWGQGTLVTVSS VL: DIQMTQSPSSLSASVGDRVTITCRASQDISQYLNWYQQKPGKAPKLLIYYTSRLQSGVPSRFSGSGSGTDFTLTISSLQPEDFATYFCQQGNTWPPTFGQGTKLEIKRTVAAPSVFIFPPDIQMTQSPSSLSASVGDRVTITCTSSQNIVHSNGNTYLEWYQQKPGKAPKLLIYKVSNRFSGVPSRFSGSGSGTDFTLTISSLQPEDFATYYCFQVSHVPYTFGQGTKVEIKR | 0.011 |  |
| DVD3227 (bispecific antibody, IgG1) VH: EVQLVQSGAEVKKPGASVKVSCKASGYTFANYGIIWVRQAPGQGLEWMGWINTYTGKPTYAQKFQGRVTMTTDTSTSTAYMELSSLRSEDTAVYYCARKLFTTMDVTDNAMDYWGQGTTVTVSSASTKGPSVFPLAPEVQLVESGGGLVQPGGSLRLSCAASGFSFSKYWLGWVRQAPGKGLEWVSDIYPGYDYTHYNEKFKDRFTISADTSKNTAYLQMNSLRAEDTAVYYCARSDGSSTYWGQGTLVTVSS VL: DIQMTQSPSSLSASVGDRVTITCRASQDISQYLNWYQQKPGKAPKLLIYYTSRLQSGVPSRFSGSGSGTDFTLTISSLQPEDFATYFCQQGNTWPPTFGQGTKLEIKRTVAAPDIQMTQSPSSLSASVGDRVTITCTSSQNIVHSNGNTYLEWYQQKPGKAPKLLIYKVSNRFSGVPSRFSGSGSGTDFTLTISSLQPEDFATYYCFQVSHVPYTFGQGTKVEIKR | 0.002 |  |
